± gives the standard deviation of the averaged measurements.
B1: library; a variant is named by its letters at N, in order (parent)
chain: GAGACCGCAACTGAAAAGTTGTGGNNNNNATAGTGAGTCGCTGCCTGCAAAGACACAACT

Variants of: B1
Test: ligation selection enrichment (abundance after / before one-round selection) (fold); higher = more template-directed ligation activity
Details: with T7Psub CACGGAUGCUAAUACGACUCACUAUA; MgCl2 25 mM; 42 °C; 4 h; pH 8.5
How it was run: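 RNA ligase library with five randomized core positions (0.75 μM, T7-transcribed) was reacted with RNA substrate (6 μM) in 50 mM EPPS pH 8.5, 25 mM MgCl2 at 42 °C for 4 h, in two independent experiments. Ligated products were PAGE-purified, reverse transcribed, barcoded by PCR and MiSeq-sequenced. Reads with quality score ≥30 at all randomized positions were counted. Enrichment was abundance after ligation divided by abundance before ligation.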
With GAGACCGCAACTGAAAAGTTGTGGTGTGGATAGTGAGTCGCTGCCTGCAAAGACACAACT [TGTGG] the ligation selection enrichment was 0.196 ± 0.025. Variant GAGACCGCAACTGAAAAGTTGTGGTGCTGATAGTGAGTCGCTGCCTGCAAAGACACAACT [TGCTG] has a ligation selection enrichment of 0.17 ± 0.017. Variant GAGACCGCAACTGAAAAGTTGTGGCCAAAATAGTGAGTCGCTGCCTGCAAAGACACAACT [CCAAA] has a ligation selection enrichment of 0.162 ± 0.034. GAGACCGCAACTGAAAAGTTGTGGAAGACATAGTGAGTCGCTGCCTGCAAAGACACAACT [AAGAC] was tested, and the ligation selection enrichment was 0.661 ± 0.019. Work on GAGACCGCAACTGAAAAGTTGTGGCGACTATAGTGAGTCGCTGCCTGCAAAGACACAACT [CGACT] yielded a ligation selection enrichment of 1.09 ± 0.25. Variant GAGACCGCAACTGAAAAGTTGTGGAGCGCATAGTGAGTCGCTGCCTGCAAAGACACAACT [AGCGC] has a ligation selection enrichment of 0.269 ± 0.043. Variant GAGACCGCAACTGAAAAGTTGTGGAGCGAATAGTGAGTCGCTGCCTGCAAAGACACAACT [AGCGA] has a ligation selection enrichment of 2.74 ± 0.25. For GAGACCGCAACTGAAAAGTTGTGGAATGAATAGTGAGTCGCTGCCTGCAAAGACACAACT [AATGA], the ligation selection enrichment was 0.528 ± 0.046. Variant GAGACCGCAACTGAAAAGTTGTGGTATAGATAGTGAGTCGCTGCCTGCAAAGACACAACT [TATAG] has a ligation selection enrichment of 0.995 ± 0.016. GAGACCGCAACTGAAAAGTTGTGGTTACTATAGTGAGTCGCTGCCTGCAAAGACACAACT [TTACT] showed a ligation selection enrichment of 0.603 ± 0.42. In the case of GAGACCGCAACTGAAAAGTTGTGGGTTGAATAGTGAGTCGCTGCCTGCAAAGACACAACT [GTTGA], the ligation selection enrichment is reported as 5.22 ± 0.32. With GAGACCGCAACTGAAAAGTTGTGGGTGAAATAGTGAGTCGCTGCCTGCAAAGACACAACT [GTGAA] the ligation selection enrichment was 1.7381 ± 0.00037. For GAGACCGCAACTGAAAAGTTGTGGGACGTATAGTGAGTCGCTGCCTGCAAAGACACAACT [GACGT], the ligation selection enrichment was 0.154 ± 0.063. GAGACCGCAACTGAAAAGTTGTGGTCTGAATAGTGAGTCGCTGCCTGCAAAGACACAACT [TCTGA] gave a ligation selection enrichment of 0.256 ± 0.023. GAGACCGCAACTGAAAAGTTGTGGTGCATATAGTGAGTCGCTGCCTGCAAAGACACAACT [TGCAT] gave a ligation selection enrichment of 3.27 ± 0.44. Variant GAGACCGCAACTGAAAAGTTGTGGCACCCATAGTGAGTCGCTGCCTGCAAAGACACAACT [CACCC] has a ligation selection enrichment of 0.15 ± 0.0098. GAGACCGCAACTGAAAAGTTGTGGGTGTAATAGTGAGTCGCTGCCTGCAAAGACACAACT [GTGTA] showed a ligation selection enrichment of 0.265 ± 0.083. GAGACCGCAACTGAAAAGTTGTGGTGGAAATAGTGAGTCGCTGCCTGCAAAGACACAACT [TGGAA] showed a ligation selection enrichment of 5.31 ± 0.71. GAGACCGCAACTGAAAAGTTGTGGTTGGAATAGTGAGTCGCTGCCTGCAAAGACACAACT [TTGGA] gave a ligation selection enrichment of 0.294 ± 0.0019. GAGACCGCAACTGAAAAGTTGTGGTCTAAATAGTGAGTCGCTGCCTGCAAAGACACAACT [TCTAA] was tested, and the ligation selection enrichment was 0.0912 ± 0.0077. GAGACCGCAACTGAAAAGTTGTGGTCTACATAGTGAGTCGCTGCCTGCAAAGACACAACT [TCTAC] gave a ligation selection enrichment of 0.152 ± 0.03. GAGACCGCAACTGAAAAGTTGTGGGGACTATAGTGAGTCGCTGCCTGCAAAGACACAACT [GGACT] was tested, and the ligation selection enrichment was 0.703 ± 0.31. Work on GAGACCGCAACTGAAAAGTTGTGGGAAGGATAGTGAGTCGCTGCCTGCAAAGACACAACT [GAAGG] yielded a ligation selection enrichment of 0.571 ± 0.21. In the case of GAGACCGCAACTGAAAAGTTGTGGGAAGTATAGTGAGTCGCTGCCTGCAAAGACACAACT [GAAGT], the ligation selection enrichment is reported as 0.121 ± 0.06. Work on GAGACCGCAACTGAAAAGTTGTGGCAGAGATAGTGAGTCGCTGCCTGCAAAGACACAACT [CAGAG] yielded a ligation selection enrichment of 0.399 ± 0.09. With GAGACCGCAACTGAAAAGTTGTGGGTCTAATAGTGAGTCGCTGCCTGCAAAGACACAACT [GTCTA] the ligation selection enrichment was 0.177 ± 0.024. GAGACCGCAACTGAAAAGTTGTGGATTGTATAGTGAGTCGCTGCCTGCAAAGACACAACT [ATTGT] showed a ligation selection enrichment of 0.543 ± 0.093. GAGACCGCAACTGAAAAGTTGTGGATTGCATAGTGAGTCGCTGCCTGCAAAGACACAACT [ATTGC] gave a ligation selection enrichment of 0.765 ± 0.2. GAGACCGCAACTGAAAAGTTGTGGATTGAATAGTGAGTCGCTGCCTGCAAAGACACAACT [ATTGA] showed a ligation selection enrichment of 6.7 ± 0.45. GAGACCGCAACTGAAAAGTTGTGGACGACATAGTGAGTCGCTGCCTGCAAAGACACAACT [ACGAC] showed a ligation selection enrichment of 1.41 ± 0.032. GAGACCGCAACTGAAAAGTTGTGGCGCCTATAGTGAGTCGCTGCCTGCAAAGACACAACT [CGCCT] gave a ligation selection enrichment of 0.779 ± 0.21. Work on GAGACCGCAACTGAAAAGTTGTGGTTGAAATAGTGAGTCGCTGCCTGCAAAGACACAACT [TTGAA] yielded a ligation selection enrichment of 1.56 ± 0.22. GAGACCGCAACTGAAAAGTTGTGGTGTCAATAGTGAGTCGCTGCCTGCAAAGACACAACT [TGTCA] was tested, and the ligation selection enrichment was 0.325 ± 0.025. Variant GAGACCGCAACTGAAAAGTTGTGGCGCAGATAGTGAGTCGCTGCCTGCAAAGACACAACT [CGCAG] has a ligation selection enrichment of 0.2266 ± 0.0013. GAGACCGCAACTGAAAAGTTGTGGCACGAATAGTGAGTCGCTGCCTGCAAAGACACAACT [CACGA] was tested, and the ligation selection enrichment was 0.471 ± 0.005. In the case of GAGACCGCAACTGAAAAGTTGTGGGCACAATAGTGAGTCGCTGCCTGCAAAGACACAACT [GCACA], the ligation selection enrichment is reported as 0.175 ± 0.0085. Work on GAGACCGCAACTGAAAAGTTGTGGGCACTATAGTGAGTCGCTGCCTGCAAAGACACAACT [GCACT] yielded a ligation selection enrichment of 0.555 ± 0.18. In the case of GAGACCGCAACTGAAAAGTTGTGGGTACTATAGTGAGTCGCTGCCTGCAAAGACACAACT [GTACT], the ligation selection enrichment is reported as 0.785 ± 0.17. GAGACCGCAACTGAAAAGTTGTGGTTGTGATAGTGAGTCGCTGCCTGCAAAGACACAACT [TTGTG] was tested, and the ligation selection enrichment was 0.223 ± 0.015. Variant GAGACCGCAACTGAAAAGTTGTGGATACAATAGTGAGTCGCTGCCTGCAAAGACACAACT [ATACA] has a ligation selection enrichment of 0.257 ± 0.032. In the case of GAGACCGCAACTGAAAAGTTGTGGAATTCATAGTGAGTCGCTGCCTGCAAAGACACAACT [AATTC], the ligation selection enrichment is reported as 0.201 ± 0.075. For GAGACCGCAACTGAAAAGTTGTGGGTTCTATAGTGAGTCGCTGCCTGCAAAGACACAACT [GTTCT], the ligation selection enrichment was 0.587 ± 0.17. Work on GAGACCGCAACTGAAAAGTTGTGGTGTTCATAGTGAGTCGCTGCCTGCAAAGACACAACT [TGTTC] yielded a ligation selection enrichment of 0.147 ± 0.071. GAGACCGCAACTGAAAAGTTGTGGAAGTTATAGTGAGTCGCTGCCTGCAAAGACACAACT [AAGTT] gave a ligation selection enrichment of 0.257 ± 0.055.

Source: the supplement of paper PMC10219994
